Measurements as given in paper PMC9377714, “Unconventional tonicity-regulated nuclear trafficking of NFAT5 mediated by KPNB1, XPOT and RUVBL2” (Journal of Cell Science, 2022).

B1: GST–NFAT5_(171–250) (domain or fragment, UniProt O94916 171-250, looked up)
chain: SCSMWMEDSPSNFSNMSTSSYNDNTEVPRKSRKRNPKQRPGVKRRDCEESNMDIFDADSAKAPHYVLSQLTTDNKGNSKA
notes: also called NFAT5-NLS; source: E. coli BL21 (DE3), purified (glutathione Sepharose); not shown: GST, N-terminal, kept
B2: GST–NFAT5_(190–250) (domain or fragment, UniProt O94916 190-250, looked up)
chain: SYNDNTEVPRKSRKRNPKQRPGVKRRDCEESNMDIFDADSAKAPHYVLSQLTTDNKGNSKA
notes: NFAT5 residues 190-250, cloned at the C terminus of GST in pGEX-4T-1; source: E. coli BL21 (DE3), purified (glutathione Sepharose); not shown: GST, N-terminal, kept
B3: NFAT5_(171–253) (domain or fragment, UniProt O94916 171-253, looked up)
chain: SCSMWMEDSPSNFSNMSTSSYNDNTEVPRKSRKRNPKQRPGVKRRDCEESNMDIFDADSAKAPHYVLSQLTTDNKGNSKAGNG
notes: source: E. coli BL21 (DE3), purified
B4: NFAT5_(189–216) (domain or fragment, UniProt O94916 189-216, looked up)
chain: SSYNDNTEVPRKSRKRNPKQRPGVKRRD
notes: also called NFAT5-cNLS; source: E. coli BL21 (DE3), purified
B5: GST–NFAT5_(171–220) (domain or fragment, UniProt O94916 171-220, looked up)
chain: SCSMWMEDSPSNFSNMSTSSYNDNTEVPRKSRKRNPKQRPGVKRRDCEES
notes: source: E. coli BL21 (DE3), purified (glutathione Sepharose); not shown: GST, N-terminal, kept
B6: NFAT5_(151–216) (domain or fragment, UniProt O94916 151-216, looked up)
chain: LLDNSRMSCQDEGCGLESEQSCSMWMEDSPSNFSNMSTSSYNDNTEVPRKSRKRNPKQRPGVKRRD
notes: as for B3

Tests used:
Conditions in all cases: both partners purified
[1] = target: T1, His–KPNB1 (UniProt Q14974 1-876); assay: pull-down; His–KPNB1 immobilised on Ni-NTA agarose, GST fusion proteins added, 4°C overnight; washes with 20 mM sodium phosphate, 100 mM NaCl, 40 mM imidazole, 10% glycerol; SDS–PAGE and Coomassie Blue
T1 construct: KPNB1 (karyopherin β1, importin β1), full length, in a modified pET 30a vector; In the pull-down it was held on Ni-NTA by the His tag; also called full-length KPNB1; source: E. coli BL21 (DE3), purified (HisTrap HP)

[2] = target: T1, His–KPNB1; assay: ITC; NFAT5_(171–253) at 600 μM titrated into 20 μM full-length KPNB1; 10 mM Na2HPO4, 1.8 mM KH2PO4, 2.7 mM KCl, pH 7.4, 150 mM NaCl; MicroCal PEAQ-ITC
[3] = target: T1, His–KPNB1; assay: ITC; NFAT5 fragment at 1.5–1.75 mM titrated into 50 μM full-length KPNB1; 50 mM Tris-HCl pH 8.0, 150 mM NaCl; MicroCal PEAQ-ITC

T1 sequence (Q14974 whole entry, the tested form may be a part): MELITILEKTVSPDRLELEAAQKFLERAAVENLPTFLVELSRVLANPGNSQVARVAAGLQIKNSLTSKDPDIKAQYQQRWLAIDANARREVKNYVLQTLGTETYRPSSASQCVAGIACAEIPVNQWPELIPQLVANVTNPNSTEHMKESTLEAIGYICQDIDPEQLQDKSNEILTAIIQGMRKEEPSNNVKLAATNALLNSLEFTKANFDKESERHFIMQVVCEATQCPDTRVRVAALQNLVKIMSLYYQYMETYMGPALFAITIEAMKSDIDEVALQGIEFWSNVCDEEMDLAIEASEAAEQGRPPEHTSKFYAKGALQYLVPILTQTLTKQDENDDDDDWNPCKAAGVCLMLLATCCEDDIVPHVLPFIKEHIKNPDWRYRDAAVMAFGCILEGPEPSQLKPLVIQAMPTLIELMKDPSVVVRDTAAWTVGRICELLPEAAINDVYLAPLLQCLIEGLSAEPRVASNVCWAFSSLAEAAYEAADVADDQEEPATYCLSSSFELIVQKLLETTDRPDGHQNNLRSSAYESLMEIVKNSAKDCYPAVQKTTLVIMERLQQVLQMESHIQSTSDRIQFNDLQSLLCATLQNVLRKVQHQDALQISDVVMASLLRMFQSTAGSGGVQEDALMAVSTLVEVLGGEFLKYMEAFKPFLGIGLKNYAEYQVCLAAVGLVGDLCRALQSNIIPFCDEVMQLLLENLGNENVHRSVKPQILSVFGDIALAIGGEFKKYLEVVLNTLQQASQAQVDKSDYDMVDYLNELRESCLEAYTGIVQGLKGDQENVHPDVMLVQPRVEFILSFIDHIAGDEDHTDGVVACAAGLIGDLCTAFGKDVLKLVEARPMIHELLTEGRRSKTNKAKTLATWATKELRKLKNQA

| Binder | binding result [1] | Kd [3] | other results |
| --- | --- | --- | --- |
| B1 | binds |  |  |
| B2 | binds |  |  |
| B3 |  |  | Kd [2]: ~1200 nM |
| B4 |  | ~1500 nM |  |
| B5 | binds |  |  |
| B6 |  | ~1300 nM |  |
